Our source for the amyloid nucleation score values is the supplement of paper PMC12042874.

± gives the uncertainty stated by the source.

The data set in a line: amyloid nucleation score (Sup35N fusion, yeast selection) (log enrichment); library NNK2; higher = more nucleation; inactive = no reads after selection. The procedure, abridged: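 For the nucleation score, DiMSum gave the log enrichment of output over input reads, centred on the mode score of non-aggregating sequences. Psi-negative yeast expressing Sup35N fused to peptides of 20 random codons were induced with 100 μM copper sulfate for 24 hours and grown 7 days at 30°C on medium lacking adenine and uracil. Input and output plasmid inserts were Illumina-sequenced, and sequences with under 100 input reads were excluded.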

In turn, ASPSHACGLC came in with an amyloid nucleation score of 2.12 ± 0.15.

In turn, FAYSLHRLLWIRCMYSNGR registered an amyloid nucleation score of 1.45 ± 0.17.

In turn, HPMLLMKNARG had an amyloid nucleation score of -0.086 ± 0.27.

The substance RRMTCALYVIRWFSVHYFYL yielded an amyloid nucleation score of -1.79 ± 0.75.

As for SQILTMWYLVIYYMSNRFGG, the amyloid nucleation score entry was “inactive”.

For the substance LAFRFDVLKWINA, the amyloid nucleation score is -0.263 ± 0.27.

The substance LAHETLCLDTYRDPW came in with an amyloid nucleation score of -1.54 ± 1.

Regarding NTKYRRFFFNTVRLLHM, the amyloid nucleation score is -0.28 ± 0.79.

Take DILMLNRSVGDIREAISVNG: the amyloid nucleation score is 0.48 ± 0.51.

The substance RWMVHAA had an amyloid nucleation score of -0.251 ± 0.76.

As to YLYSNG, the amyloid nucleation score result is “inactive”.

On to INLYRSVGPKKWYTGEVLMA, for which the amyloid nucleation score was -0.137 ± 1.1.

Consider TVTSLRSLPIMSMPCRETTD, for which the amyloid nucleation score is 1.1 ± 0.25.

In turn, FDKASLKFCVMLVVRSV came in with an amyloid nucleation score of 0.236 ± 1.1.

Substance WWYGGLEMGFIICFRIPNVI returned an amyloid nucleation score of -0.606 ± 1.1.

Substance FGNRRSCHDIRSWIDRYLVR returned an amyloid nucleation score of 1.69 ± 0.52.

As for DEMARVYIHY, the amyloid nucleation score was found to be 0.183 ± 0.74.

For MPPFGNDCTDREDVCMGRFV, the amyloid nucleation score entry was “inactive”.

IRLLCHAVENCGTQRRLWGL gave an amyloid nucleation score of 0.329 ± 0.6.

On to FVEIIAKWILTI, for which the amyloid nucleation score is 0.033 ± 0.6.

In turn, SYGLLKYGI had an amyloid nucleation score of -0.891 ± 0.35.

In the case of CGSRQAA, the amyloid nucleation score turned out to be 5.3 ± 0.085.

NQVQCKCSYKVVEVG yielded an amyloid nucleation score of 0.408 ± 0.2.

NARWKDVYHPLTYCFVNLWT showed an amyloid nucleation score of 8.115 ± 0.034.

The substance LYIALIFSISHGWCIAFRLT had an amyloid nucleation score of -0.214 ± 1.1.

As to FDVKGRISLNRYSINFNARL, the amyloid nucleation score was found to be 5.11 ± 0.073.

Regarding DAVFGTCSLFCRTCAKASFG, the amyloid nucleation score worked out at 1.58 ± 0.25.

Turning to LFVHYFSVGYSHLLCRDCTS, the amyloid nucleation score was 3.23 ± 0.1.

On to DYCSYTAL, for which the amyloid nucleation score was -0.081 ± 1.1.

In turn, VFWSGAILLLAKCIGGMSIL returned an amyloid nucleation score of -0.47 ± 0.32.

For DMCDYQSVGF, the amyloid nucleation score entry was “inactive”.

As for KSLDYFSECRDSPNML, the amyloid nucleation score is -0.757 ± 0.48.

With MFRGVQN, the amyloid nucleation score is 0.899 ± 0.53.

In turn, QGEEVGWFRFGRKSGAINMV showed an amyloid nucleation score of 0.076 ± 0.36.

YTVGRGSR registered an amyloid nucleation score of 0.794 ± 0.6.

Consider VLFRELRSTTASRTGDGDMM, for which the amyloid nucleation score worked out at 4.61 ± 0.057.

STMVVRVFIGNVFMSFNMIR displayed an amyloid nucleation score of 4.36 ± 0.059.

In the case of NELFWFNMSFSCPKWGICNL, the amyloid nucleation score worked out at 4.17 ± 0.043.

AHIREMNVSGGCWLVQWVSK: the amyloid nucleation score stood at 9.497 ± 0.038.

With NPELRRGWFTWYPVGPGMKQ, the amyloid nucleation score was found to be 0.175 ± 0.54.

The substance SDYHLFTYTLGINSTLDGRV had an amyloid nucleation score of -1.3 ± 0.38.

For IQSNAQESHNSNICESYNND, the amyloid nucleation score was -1.02 ± 0.62.

Regarding GYRVDLIILKFDLWYEY, the amyloid nucleation score result is “inactive”.

Take SLSTHIFLSSGLSLTFKKRS: the amyloid nucleation score entry is “inactive”.

In turn, STMAFWSYHGWCYGVLIL displayed an amyloid nucleation score of -0.898 ± 0.61.

Consider YYRYPYTLKCPGGLQERQHL, for which the amyloid nucleation score is -0.028 ± 0.76.

TCLRSIVVVFLALGLDSFFW showed an amyloid nucleation score of -0.177 ± 0.3.

Turning to RGSVNCGLFLSRKSDASGRG, the amyloid nucleation score worked out at 0.234 ± 0.57.

For TLWVDRVREMC, the amyloid nucleation score was -0.809 ± 0.36.

Turning to YSMSLASSRCR, the amyloid nucleation score entry was “inactive”.

On to GYCKVGCFHLRYGSACCVRM, for which the amyloid nucleation score is 0.511 ± 0.41.

The substance YSSSSSTYNAWFSMPESHEL displayed an amyloid nucleation score of 0.264 ± 0.15.

Substance RCRPLCI displayed an amyloid nucleation score of -0.299 ± 1.

Regarding HQLPVHEPYEYWLQQGSNCP, the amyloid nucleation score turned out to be 0.353 ± 0.56.

YYSLLLGSTKSVAN yielded an amyloid nucleation score of -0.038 ± 0.33.

On to FYLWATTYQCRFFIRYAKFS, for which the amyloid nucleation score stood at 2.97 ± 0.084.

MMDRV showed an amyloid nucleation score of -0.092 ± 0.65.

Turning to RSSKTNWWTGEISVPYGYWM, the amyloid nucleation score was 0.368 ± 0.47.

The substance SLLNQLIKRNKSNAYVVHGI showed an amyloid nucleation score of -0.275 ± 0.4.

PMISKVCHILKRVEPSWGMR came in with an amyloid nucleation score of -0.199 ± 1.1.

The substance GMPVLV displayed an amyloid nucleation score of 0.093 ± 0.26.

FILQELCWPVLSSIHFGNVA: the amyloid nucleation score is -1.15 ± 0.36.

Consider ISSEHNAWYEVA, for which the amyloid nucleation score entry was “inactive”.

Substance FFKRSSFKMGSRITETRYRR came in with an amyloid nucleation score of -0.728 ± 0.56.

TTTAERSVRPVSCDGFIACG yielded an amyloid nucleation score of 3.56 ± 0.054.

The substance HSMSYFDYAIRLDRVGDVIS came in with an amyloid nucleation score of 0.339 ± 0.38.

FCFISSYVPKLYSLKSQVVI displayed an amyloid nucleation score of -0.988 ± 0.39.

With MWPHRFM, the amyloid nucleation score stood at 0.72 ± 0.28.

In turn, SVINYVFMGDHPYHNVIFRF came in with an amyloid nucleation score of 7.576 ± 0.051.

HTFITVPASGRAATLCTSED showed an amyloid nucleation score of 1.14 ± 0.12.

AYRLGFNVMLTDAVVARDIL returned an amyloid nucleation score of 0.512 ± 0.66.

Substance YTDISCVLLGLG gave an amyloid nucleation score of -1.76 ± 0.78.

KVSDRVGLEPKVCAQRRRNL registered an amyloid nucleation score of 0.025 ± 0.27.

ARMITWGRNMILTPSPMRHK: the amyloid nucleation score was -0.783 ± 1.

As for AFEPDIK, the amyloid nucleation score is -0.738 ± 0.62.

On to NTRCGCWLVSAML, for which the amyloid nucleation score stood at 0.196 ± 0.77.

Substance NGLYCFEVLLGSSAFPWTG came in with an amyloid nucleation score of 3.63 ± 0.082.

In the case of IGVLISVGNLSYSTYSSRFI, the amyloid nucleation score was 5.87 ± 0.062.

CNMLRVNHRNLVLTDMCNG gave an amyloid nucleation score of 0.204 ± 0.8.

Regarding VELQP, the amyloid nucleation score was determined as 1.18 ± 0.29.

Take ARTLWY: the amyloid nucleation score is -0.522 ± 0.28.

Substance VTYEIVLWSWIKDVVHKLLR returned an amyloid nucleation score of -0.483 ± 0.48.

The substance VNSLFLVVRYGG yielded an amyloid nucleation score of 5.25 ± 0.05.

WGKLRGIPAYDYSLTGCLYV: the amyloid nucleation score was determined as 0.647 ± 0.8.

Consider SRCVCMFTEIPATAFPMKVR, for which the amyloid nucleation score was -0.94 ± 0.64.

In turn, KRLVGVTAMMCSFFLYLFLE gave an amyloid nucleation score of 0.859 ± 0.35.

For GRKLNFGQAFLWLYQVCWFM, the amyloid nucleation score result was “inactive”.

YRVCAYLAAKEFDSRHGGDA registered an amyloid nucleation score of 0.744 ± 0.37.

Consider GMLVELHYGPMY, for which the amyloid nucleation score came out at 0.334 ± 0.56.

Consider GFVYYSVMVFLMLAFPYLRH, for which the amyloid nucleation score is -1.59 ± 0.64.

FIDFGVVVSWVL returned an amyloid nucleation score of 0.985 ± 0.3.

The substance SVYHLRLI showed an amyloid nucleation score of -0.494 ± 0.42.

Regarding VKVRFFSHVNSMMSLKSIVV, the amyloid nucleation score result was “inactive”.

QIFTKRVRTNLPFQFSNYVG gave an amyloid nucleation score of 0.479 ± 0.74.

Regarding NSTDSSFGKARYFLSNSYWV, the amyloid nucleation score result was “inactive”.

As for MEPSVIRF, the amyloid nucleation score is -0.271 ± 0.55.

The substance NRIYVQNRPWSIPENVELTG showed an amyloid nucleation score of -0.821 ± 0.78.

With IFCADMVLNFGGMCPARERA, the amyloid nucleation score was 0.038 ± 0.8.

Substance AGELGLNIYVLSIYK yielded an amyloid nucleation score of 5.26 ± 0.067.

YWVLQNYHLYCLYKSKSRNW returned an amyloid nucleation score of -0.403 ± 0.4.

Consider RRRTEGN, for which the amyloid nucleation score was found to be 0.304 ± 0.8.

TVLLMIMMYFIANSFYVACG gave an amyloid nucleation score of 5.89 ± 0.066.

With SVCLSPYLSLNYFYWWNSKR, the amyloid nucleation score was determined as 8.377 ± 0.046.

Substance SFSILLEDTSS registered an amyloid nucleation score of -0.162 ± 0.76.
